Where two headings read alike, the source gives them in different places.
Experiments:
Assay in all cases: cell-based or functional assay
GLP-1 receptor [1] = molecular target: GLP-1 receptor
GLP-1 receptor [2] = molecular target: GLP-1 receptor; remark: listed apart in the source
glucagon receptor = molecular target: glucagon receptor

## GLP-1 (peptide)
GLP-1 receptor [1]
  cAMP Induction, EC50 (luciferase reporter, HEK293): 0.04 nM
GLP-1 receptor [2]
  cAMP Induction, EC50 (luciferase reporter, HEK293): 0.05 nM
Glucagon receptor
  cAMP Induction, EC50 (luciferase reporter, HEK293): > 1000 nM

Source: patent US20120196804A1
